Results on one protein are retold here after publication PMC3439888 (Nucleic Acids Research, 2012).

The data set deals with the molecule itself. The data set is described as follows: SEC.

B1: Lac repressor (natural protein)
chain: MKPVTLYDVAEYAGVSYQTVSRVVNQASHVSAKTREKVEAAMAELNYIPNRVAQQLAGKQSLLIGVATSSLALHAPSQIVAAIKSRADQLGASVVVSMVERSGVEACKAAVHNLLAQRVSGLIINYPLDDQDAIAVEAACTNVPALFLDVSDQTPINSIIFSHEDGTRLGVEHLVALGHQQIALLAGPLSSVSARLRLAGWHKYLTRNQIQPIAEREGDWSAMSGFQQTMQMLNEGIVPTAMLVANDQMALGAMRAITESGLRVGADISVVGYDDTEDSSCYIPPLTTIKQDFRLLGQTSVDRLLQLSQGQAVKGNQLLPVSLVKRKTTLAPNTQTASPRALADSLMQLARQVSRLESGQ
Take B1: the “stoichiometry N” value came out at 4.
